From the nanobody polyreactivity screen of Harvey et al. (2022)

Assay: yeast display, Sf9 membrane polyspecificity reagent, FACS + sequencing; frameworks hold sequencing errors
How it was run: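 Polyreactivity labels are assigned by the sorting gate from which each nanobody was recovered. The gates were low and high (top ~1%), set on anti-HA fluorescence for expression and streptavidin fluorescence for reagent binding. Before sorting, galactose-induced (36–48 hours) yeast display cells were stained for 1 hour at 4 °C with 10% biotinylated, detergent-solubilized Sf9 membrane reagent.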

Sequence	polyreactivity (PSR sort gate)
QVQLVESGGCLVQAGGSLRLRCAASGSTFDDNVKGWYRPAPRKDRELVAAISSSGGSTYYADSVKGRFTISRDNAKNTVYLQMNSLKPEDTAVYYCNAVYFGLWGYYSRRSYNYWGQGTQVNVSS	low polyreactivity
QDQLVDSGGGLVQAGGNLRLSCAASGRTFPPYSMGWDRQAPGKERELVAAISGSGASTYYADSEKGRFTISRDNAKNTVYLQMNCLKPEDSAVYYCARYRGYWGRYYGVDYGYWGQGTQVTVSS	high polyreactivity
QVQLVESGGGLVQAGGSLRLSCAASGSTFVGYAMGWYRQAPGKERELVAAISGRGGSTYYADSVKGRFTISRDNAKNTVYLQMNSLKPEDTAVYYCNARRRKTVPNYIYNYWGQGTQVTVSS	high polyreactivity
QVQLVESGGGLVQAGGSLRLSCAASGRTFAVYAMGWYRQAPGKERELVAAISRRGGSTYYADSVKGRFTISRDNAKNTVYLQMNSLKPEDTAVYYCATDNSQSTYPYDYWGQGTQVTVSS	high polyreactivity
QVQLVESGGGFVQAGGSLRLSCVPSGRTYEPYAMGWYRQAPGKERELVAAIRWSGDRTYYADSVKGRFTISRDFAKITVYLHMISLKPEDTAVYYCAADYRARRWGMDYWGQGTQVTVSS	high polyreactivity
QVQLVESGGGLVQAGGSLRLSCAASGSTFQYYAMGGYRQAPGKERELVAGITWRDGNTYYADTVKGRFTISRDNANNTVYLQMNSLKPEDTAVYYCAARRYFVIYYPYDYWGQGTQVTVSS	low polyreactivity
QVQLVESGGGLVQAGGSLRLSCAASGRTFKIYAMGWYRQAPGKERELVAAISRGGRTYYADSVKGRFTISRDNAKNTVYLQMNSLKPEDTAVYYCAADLLISPEFYYWGQGTQVTVSS	high polyreactivity
QVQLVESGGGLVQAGGSLRLSCAASGFILEDYTMGWYRQAPGKERELVAAISSGGTRTYYADSVKGRFTISRDNAKNTVYLQMNSLKPEDTAVYYCTTRRGERGYWGQGTQVTVSS	high polyreactivity
QVQLVESGGGLVQAGGSLRLSCAASGFTFAFYTMGWYRQAPGKERELVAGITRSGTNTYYADSVKGRFTISRDNSKNTVYLQMNSLKPEDTSVYYCNADPRTGWYKYDYWGQGTQVTVSS	high polyreactivity
QVQLVESGGGLVQAGGSLRLSCAASGSIFYVKTMGWSRQAPGKEREFLAAINYSGDSTYADSVKGRFTISRDNAKNTVYLQMIRLKPEDTAVYYCNAVPVRYLRGRNGHDYWGQGTQVTVSS	high polyreactivity
QVQHVESGGGLVQAGGSLRLSCAASGSILRPNVMGWYRQAPGKDRELVARISSRGVNTYYADSVKGRFTISRDNAKNTVYLQMNSLKPEDTAVYYCNARRAQYYWNRSPKYDYWGQGTQVTVSP	high polyreactivity
QVQLVESGGGLVQAGGSLRLSCAASGRTFAENAMGWYRQAPGKESELVAAISETGSRTYYADSVKGRFTISRDNAKNTVYLQMNSLKPEDTAVYYCAARSWHGVLWSYRHDYWGQGTQVTVSS	low polyreactivity
QVQLVESGGGLVQAGGSLSLSCAASGSIFFNNAMGWYRQAPGKERELVAAITWRDGSTNYADSVKGRFTISRDIAKNTVYLQMNSLKPEDTAVYYCNKVKEFGNVWFLPKYNYWGQGTQVTVSS	low polyreactivity
QVQLVESGGGLVQAGGSLRLSCAASGSTFVSNAMGWYSQAPGKERELVAAISSSDDSTYYADSVKGRFTLSRDKAKNTVYLQMISLKPEDTAVYYCAAESDSDQHDGDYWGQGTQVTVSS	low polyreactivity
QVQLQESGGGLVQAGGSLRLSSAASGTITVLYKMGWFRQPPGKQREFVASINYGTSTYYADSVKGRFTVSRDSAKKTVSLQMNSLKPEDTAVYYCAAAYRWQDVYRYWGQGTQVTVSS	low polyreactivity
QVQLVESGGGLVQAGGSLRLSCAASGSIFPVNAMGLYRQAPGKERELVAAINTSSGSTYYADSVKGRFTISRDNAKNTVYLQMNSLKPEDTAVYYCAAVYVASGYRYGYWGQGTQVTVSS	high polyreactivity
QVQLVESGGGLVQAGGSLRLSCAASGLIFRRYAMGWYRQAPGKERELVAAISRTGGTTYYADSVKGRFTISRDTAKNTVYLQMNSLKPEDTAVYYCAAAGQGPDYDYWGQGTQVSVSS	high polyreactivity
